Experimental data: US20100204147A1 (REGENERX BIOPHARMACEUTICALS, published 2010)

How the values were obtained:
Assay in all cases: ELISA, immobilized fragment, without factor XIII or with non-activated factor XIII
[1] = target: T1, Recombinant truncated αC-fragment, NH2-terminal half (residues Aα221-391) (human, UniProt P02671 240-410)
T1 construct: probably the mature Aα chain
T1 sequence (looked up): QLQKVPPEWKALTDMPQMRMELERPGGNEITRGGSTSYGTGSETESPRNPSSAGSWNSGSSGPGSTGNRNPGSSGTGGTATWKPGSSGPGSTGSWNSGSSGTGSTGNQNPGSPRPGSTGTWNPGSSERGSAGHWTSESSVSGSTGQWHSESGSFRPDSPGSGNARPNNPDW
Description: (§1) The interaction between thymosin β4 and fibrin(ogen) and its fragments in the presence or absence of FXIIIa was studies by ELISA using plastic microliter plates. Wells of microliter plates were coated overnight at −4° C. with fibrinogen and fibrin at 10 μg/mL or with the recombinant fragments of 20 μg/ml, all in 0.1 M NaHCO₃ buffer, pH 8.3. Fibrin was made by addition to the wells of a mixture containing 10 μg/mL fibrinogen 1 NIH u/ml thrombin and 400 u/ml aprotinin, followed by overnight incubation at +4° C. The wells were then blocked by incubation with Super Blocker (Pierce) at 37° C. for 1 h. Following washing with TBS containing 0.05% Tween-20 (TBS-Tween), the indicated concentrations of thymosin β4, FXIII, FXIIIa(Thr) and FXIIIa(Ca) were added to the wells and incubated for 2-2.5 h at 37° C. Bound (incorporated) thymosin β4 was detected by the reaction with rabbit anti-thymosin β4 serum and peroxidase-conjugated anti-rabbit IgG. A TMB Microwell Peroxidase Substrase was added to the wells, and the incorporated thymosin β4 was measured spectrophotometrically at 450 nm.
(§2) The above observations were confirmed by ELISA. […] It should be noted that the incorporation of the γ-module was almost twice lower than that of the αC-domain variants at all concentration studied. When thymosin β4 was incubated with the same immobilized species in the presence of non-activated factor XIII or without it, the incorporation was very low in all cases.

[2] = target: T2, Recombinant truncated αC-fragment, COOH-terminal half (residues Aα392-610) (human, UniProt P02671 411-629)
T2 construct: probably the mature Aα chain; also called Aα392-610 sub-fragment; Aα392-610 fragment
T2 sequence (looked up): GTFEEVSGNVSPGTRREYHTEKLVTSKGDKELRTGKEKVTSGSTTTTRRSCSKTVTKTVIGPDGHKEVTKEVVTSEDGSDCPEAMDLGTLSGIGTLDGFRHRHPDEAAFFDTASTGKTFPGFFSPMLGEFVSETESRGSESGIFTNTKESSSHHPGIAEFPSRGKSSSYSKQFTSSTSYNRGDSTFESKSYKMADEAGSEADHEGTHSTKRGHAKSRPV
Description: as §1, §2

[3] = target: T3, Recombinant αC-fragment corresponding to the human fibrinogen αC-domain (residues Aα221-610) (human, UniProt P02671 240-629)
T3 construct: By fibrinogen convention they are probably mature Aα chain numbering, without the signal peptide
T3 sequence (looked up): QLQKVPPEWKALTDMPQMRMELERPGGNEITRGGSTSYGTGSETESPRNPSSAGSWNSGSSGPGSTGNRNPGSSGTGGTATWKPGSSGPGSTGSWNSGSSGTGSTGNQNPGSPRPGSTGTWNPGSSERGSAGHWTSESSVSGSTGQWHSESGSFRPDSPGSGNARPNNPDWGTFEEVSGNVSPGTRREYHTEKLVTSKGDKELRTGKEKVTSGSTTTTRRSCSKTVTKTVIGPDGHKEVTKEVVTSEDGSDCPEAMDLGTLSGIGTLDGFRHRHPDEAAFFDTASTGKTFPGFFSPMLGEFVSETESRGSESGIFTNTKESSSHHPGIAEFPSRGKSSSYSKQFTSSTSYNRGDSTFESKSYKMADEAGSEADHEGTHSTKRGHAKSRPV
Description: as §1, §2

- binding result [1]: no binding
- binding result [2]: no binding
- binding result [3]: no binding
B1: Synthetic thymosin β4 (peptide, UniProt P62328 2-44, looked up)
peptide: SDKPDMAEIEKFDKSKLKKTETQEKNPLPSKETIEQEKQAGES
modifications: not fully specified
notes: mature; also called Tβ4
